The record followed here is patent US20140004120A1 (published 2014).

Holding throughout (assay): Biacore
In general terms: Surface plasmon resonance follows binding to a sensor surface in real time, without labels.

Assay [1] concerns the target T1, rsDR5 (recombinant human DR5 extracellular domain protein) (UniProt O14763 56-183).
T1 chain: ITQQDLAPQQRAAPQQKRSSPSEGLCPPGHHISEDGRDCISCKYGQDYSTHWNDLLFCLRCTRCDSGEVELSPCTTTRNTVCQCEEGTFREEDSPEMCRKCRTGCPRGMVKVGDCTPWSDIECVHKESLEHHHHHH

Assay [2] has as its target T1, rsDR5 (recombinant human DR5 …).
Assay [3] shares this target.

Usually Kd stands for the equilibrium constant for the complex coming apart.

Numbering of substitutions follows the chain as printed. Where two headings read alike, the source gives them in different places.

B1: hB273_H2-1-NE/hB273_L1-NE (antibody, V domains shown)
VH: EVQLVQSGAEVKKPGASVKVSCKASGYSFIGYFMNWMKQSPGMSLEWIGRFNPYNEDTFYNQKFKGKATLTVDKSTSTAYMELSSLRSEDTAVYFCARSAYYFDSGGYFDYWGQGTLVTVSS
VL: DIVMTQSPLSLPVTPGEPASISCRSSQSLVHSNENTYLHWYLQKPGQSPQLLIYKVSNRFSGVPDRFSGSGSGTDFTLKISRVEAEDVGVYYCSQSTHVPWTFGPGTKVEIKR
In the case of B1, the Kd in assay [1] was found to be 2.02 nM.

B2: hB273_H2-5/hB273_L1 (antibody, V domains shown)
VH: B1 VH with E1Q, M43K, E56G, A97G
VL: B1 VL with E34G
Regarding B2, the Kd in assay [2] was 1.38 nM.

B3: hB273_H1/hB273_L1 (antibody, V domains shown)
VH: B1 VH with E1Q, M37V, K38R, S40A, S44G, I48M, E56G, K67R, A68V, F95Y
VL: B1 VL with E34G
Regarding B3, in assay [3], the Kd is 5.45 nM.

B4: hB273_H1-1/hB273_L1 (antibody, V domains shown)
VH: B1 VH with E1Q, K38R, S40A, S44G, I48M, E56G, K67R, A68V, A97G
VL: B1 VL with E34G
B4: the Kd in assay [2] was 1.83 nM.

B5: hB273_H3/hB273_L1 (antibody, V domains shown)
VH: B1 VH with M43K, E56G, Y80H, A97G
VL: B1 VL with E34G
Regarding B5, the Kd in assay [3] was 2.4 nM.

B6: hB273_H2-1-NE/hB273_L1-NL (antibody, V domains shown)
VH: B1 VH
VL: B1 VL with E34L
With B6, in assay [1], the Kd stood at 1.76 nM.

B7: hB273_H2-1-NE/hB273_L1-NF (antibody, V domains shown)
VH: B1 VH
VL: B1 VL with E34F
On to B7, for which the Kd in assay [1] turned out to be 1.76 nM.

B8: hB273_H2-4/hB273_L1 (antibody, V domains shown)
VH: B1 VH with E1Q, E56G, A97G
VL: B1 VL with E34G
Regarding B8, the Kd in assay [2] was 1.55 nM.

B9: hB273_H1/hB273_L2 (antibody)
heavy: not shown
light: DVVMTQTPLSLPVSLGEPASISCRSSQSLVHSNGNTYLHWYLQKPGQSPKLLIYKVSNRFSGVPDRFSGSGSGTDFTLKISRVEAEDVGVYFCSQSTHVPWTFGPGTKVEIKRTVAAPSVFIFPPSDEQLKSGTASVVCLLNNFYPREAKVQWKVDNALQSGNSQESVTEQDSKDSTYSLSSTLTLSKADYEKHKVYACEVTHQGLSSPVTKSFNRGEC
Regarding B9, the Kd in assay [3] came out at 6.53 nM.

B10: hB273_H2-3/hB273_L1 (antibody)
heavy: not shown
light: B9 light with V2I, T7S, S14T, L15P, K50Q, F92Y
As for B10, in assay [2], the Kd came out at 2.12 nM.

B11: hB273_H2/hB273_L2 (antibody)
heavy: not shown
light: B9 light
For the molecule B11, the Kd in assay [3] stood at 4.47 nM.

B12: hB273_H2/hB273_L1 (antibody)
heavy: not shown
light: B9 light with V2I, T7S, S14T, L15P, K50Q, F92Y
For the molecule B12, the Kd in assay [3] was 4.36 nM.

B13: hB273_H3/hB273_L3 (antibody)
heavy: not shown
light: B9 light with P105G
For the molecule B13, the Kd in assay [3] stood at 2.15 nM.

B14: hB273_H2-1/hB273_L1 (antibody)
heavy: not shown
light: B9 light with V2I, T7S, S14T, L15P, K50Q, F92Y
With B14, the Kd in assay [2] is 1.99 nM.

B15: hB273_H3/hB273_L2 (antibody)
heavy: not shown
light: B9 light
Consider B15, for which the Kd in assay [3] turned out to be 2.19 nM.

B16: hB273_H1/hB273_L3 (antibody)
heavy: not shown
light: B9 light with P105G
Take B16: in assay [3], the Kd stood at 6.04 nM.

B17: hB273_H2/hB273_L3 (antibody)
heavy: not shown
light: B9 light with P105G
For B17, in assay [3], the Kd turned out to be 5.4 nM.

B18: hB273_H2-2/hB273_L1 (antibody)
heavy: not shown
light: B9 light with V2I, T7S, S14T, L15P, K50Q, F92Y
For B18, in assay [2], the Kd came out at 2.14 nM.
